Results published in paper PMC3651781.

Target: T1, His-Dis3l2 D389N (mouse, UniProt Q8CI75 1-870, D389N)
T1 sequence: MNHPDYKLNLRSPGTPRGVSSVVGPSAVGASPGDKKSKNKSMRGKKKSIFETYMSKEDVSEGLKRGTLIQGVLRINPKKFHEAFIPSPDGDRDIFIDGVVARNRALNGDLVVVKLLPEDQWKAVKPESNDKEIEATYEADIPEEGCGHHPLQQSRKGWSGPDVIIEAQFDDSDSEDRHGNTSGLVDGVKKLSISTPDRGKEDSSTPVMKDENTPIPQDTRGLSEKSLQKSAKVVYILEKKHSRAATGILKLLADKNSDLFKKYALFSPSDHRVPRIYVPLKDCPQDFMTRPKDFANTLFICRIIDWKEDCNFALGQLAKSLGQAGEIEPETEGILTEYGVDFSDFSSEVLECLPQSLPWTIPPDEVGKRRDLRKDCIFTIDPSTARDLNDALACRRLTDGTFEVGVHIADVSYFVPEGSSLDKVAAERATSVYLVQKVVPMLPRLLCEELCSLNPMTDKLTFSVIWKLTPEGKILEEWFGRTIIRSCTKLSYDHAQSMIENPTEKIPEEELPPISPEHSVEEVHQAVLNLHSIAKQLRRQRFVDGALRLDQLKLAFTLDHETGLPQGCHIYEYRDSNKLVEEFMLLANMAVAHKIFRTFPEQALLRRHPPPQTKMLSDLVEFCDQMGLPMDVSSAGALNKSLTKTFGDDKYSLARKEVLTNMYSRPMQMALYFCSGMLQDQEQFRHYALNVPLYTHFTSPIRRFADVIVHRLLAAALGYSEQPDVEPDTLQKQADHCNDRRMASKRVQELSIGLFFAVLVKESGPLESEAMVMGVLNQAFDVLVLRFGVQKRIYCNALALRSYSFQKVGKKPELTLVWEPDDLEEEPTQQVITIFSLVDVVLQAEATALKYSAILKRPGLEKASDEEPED
Assay: EMSA

B1: mmu-pre-let-7a-1 (structured_RNA)
RNA: UGAGGUAGUAGGUUGUAUAGUUUUAGGGUCACACCCACCACUGGGAGAUAACUAUACAAUCUACUGUCUUUCC
binding result: no binding

B2: mmu-pre-let-7a-1+14U (structured_RNA)
RNA: UGAGGUAGUAGGUUGUAUAGUUUUAGGGUCACACCCACCACUGGGAGAUAACUAUACAAUCUACUGUCUUUCCUUUUUUUUUUUUUU
binding result: binds
